From paper PMC7730289 come the findings set out here.

Bounds are passed on as bounds.

Holding throughout (experiment): flow cytometry
(In general: In flow cytometry, cells or beads pass a laser one at a time.)

In one data set the target is CD63 on MDA-MB-231 cells (UniProt P08962). Particulars: MDA-MB-231 cells; PBS pH 7.4, 2.0 mM MgCl2, 0.02% Tween 20, 100 ug/mL salmon sperm DNA; ELISA 0.5 h; cells at RT 1 h (Methods) or 37 C 30 min (Results).
Data set [1] deals with CD63 overexpressed on HEK293T cells (UniProt P08962). Particulars: HEK293T/CD63 cells; PBS pH 7.4, 2.0 mM MgCl2, 0.02% Tween 20, 100 ug/mL salmon sperm DNA; ELISA 0.5 h; cells at RT 1 h (Methods) or 37 C 30 min (Results). Background: ELISA stands for enzyme-linked immunosorbent assay.
Chain of CD63 overexpressed on HEK293T cells (P08962 whole entry): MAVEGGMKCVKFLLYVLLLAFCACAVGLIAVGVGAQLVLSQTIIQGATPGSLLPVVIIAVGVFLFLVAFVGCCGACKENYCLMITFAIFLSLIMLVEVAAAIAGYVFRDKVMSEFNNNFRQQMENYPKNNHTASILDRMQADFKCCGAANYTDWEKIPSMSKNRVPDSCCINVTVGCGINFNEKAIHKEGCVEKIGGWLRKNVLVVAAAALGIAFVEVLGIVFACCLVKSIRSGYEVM
The test system of data set [2] is CD63-negative HEK293T cells. To be noted: PBS pH 7.4, 2.0 mM MgCl2, 0.02% Tween 20, 100 ug/mL salmon sperm DNA, ELISA 0.5 h, cells at RT 1 h (Methods) or 37 C 30 min (Results).

Chain of CD63 on MDA-MB-231 cells (P08962 2-238): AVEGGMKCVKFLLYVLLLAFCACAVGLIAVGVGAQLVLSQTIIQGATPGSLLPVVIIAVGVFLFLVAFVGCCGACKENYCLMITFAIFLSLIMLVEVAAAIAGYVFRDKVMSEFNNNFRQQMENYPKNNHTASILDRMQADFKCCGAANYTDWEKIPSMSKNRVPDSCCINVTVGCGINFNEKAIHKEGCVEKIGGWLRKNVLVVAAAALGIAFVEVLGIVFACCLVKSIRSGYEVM

The Kd is the concentration at which binding is half-saturated. Low values mean a tighter complex, high ones a looser complex. As to “TAACACGACAGACGTTCGGAGGTCGAACCCTGACAGCGTGGGC [CD63-1 FAM]”, the Kd is 96.9 nM with CD63 on MDA-MB-231 cells, 113 nM in data set [1] and > 1000 nM in data set [2].
